The text below walks through data of article PMC11050321, “L-Asparaginase Conjugates from the Hyperthermophilic Archaea Thermococcus sibiricus with Improved Biocatalytic Properties” (International Journal of Molecular Sciences, 2024).

Substrate in the series: NC(=O)C[C@H](N)C(=O)O
Kind of series: purified protein. The class given is biochemical, Thermococcus sibiricus. Particulars: native unconjugated enzyme, 25 mM borate buffer, pH 8.5 (Table 4; Figure 5 legend says pH 7.5, Methods pH 9.3), 85 °C.

B1: TsA (L-asparaginase from Thermococcus sibiricus) (Thermococcus sibiricus MM 739) (protein)
chain: MKKLLIIGTGGTIASAKTEQGYKSVLKIDEILKLAKIKLENGYKIDSTNIMNIDSTLIHPEDWEIIAKEVFKALDDYDGIIITHGTDTLAYTASMLSFMIKNPNKPIVLTGSMLPITENGSDAPRNIRTAIKFAMEDVAGVFVAFMDKIMLGCRTSKVRTLGLNAFMSINYPDVAYVKGEKILYNIPKEKFQPNGSPELDTKYEPRVVVLRVTPGLGGEIIDAVLDAGYKGIVLEGYGAGGLPYRKSNLLSKIKEITPKIPVIMTTQALYDGVDMRKYEVGRKALETGIIPAKDMTKEATITKLMWALGHTKDVEKIREIMHTNYVNEIKS
notes: synthetic gene in pET-28a(+), E. coli BL21(DE3), SP-Sepharose purified (no tag mentioned); gene span 996 nt
As to B1, the Km amounted to 6.1 ± 1.3 mM and the Vmax turned out to be 470 µmol/min/mg.
